Residue numbers refer to the chain shown, from its start. Numbers in names are those of the source.
T1: astexin-1
T1 chain: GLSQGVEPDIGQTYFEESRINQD

T2: astexin-2 ΔC3 (lassoed, threaded)
T2 chain: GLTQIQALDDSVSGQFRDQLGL

T3: astexin-2 ΔC4 (lassoed, threaded)
T3 chain: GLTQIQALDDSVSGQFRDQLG

T4: astexin-3 (lassoed, full-length)
T4 chain: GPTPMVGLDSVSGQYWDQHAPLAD

T5: astexin-3 ΔC1
T5 chain: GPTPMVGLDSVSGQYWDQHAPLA

T6: astexin-3 ΔC2
T6 chain: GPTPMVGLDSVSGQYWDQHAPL

T7: unthreaded astexin-2 ΔC3
T7 chain: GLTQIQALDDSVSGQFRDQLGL

T8: unthreaded astexin-2 ΔC4
T8 chain: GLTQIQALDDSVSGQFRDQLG

B1: C-terminally His-tagged AtxE2 (protein)
chain: AAREAPPVTPEVLVRLADIGTMSASETTPLLSLSPDGRYVAFQVRQADPVTNLNVFRMVVKATDGATDAIDVDVGGEYLFWTIPSWGYARNAPSGANLTIQPRWSPSGTHLAYLRQDQGRVRVWRASVKGEGASPVIEDAYDIEDVQWLDDNTLIYSGRPGFVEAEAEIEREGRRGWVYDERFHPLTGARPRVLEPISIVYQVLDLKTGTRRAATPTEVARLREKPDPLRAMVGRTTFSVSRTDPQNINAPTTLVARRGEGEPVRCDEEACQNITRMWGDETANVLYFLRREGWASNEMALYRMPADALKPVRIWHATGLLQGCERQAKRLICAQESALQPRRLVTLNLTSGQMSPLYDPNPDLSRYRLPKVERLTLRNRNGIEVFSDLVLPPDYQLGTRLPLVIVQYSSRGFLRGGTGDENPILPLATAGFAVLSFHSPRSEASYQRFTSPIAQSKAEYSNWRNRWNILHTLEDLIDDLDRRGVIDPARVGLTGLSDGATTVHFGLINSHRFAAAVTSSCCTDSFTASVMNGPRISGALKAYGIETDQADDGPFWAATSFVVNASRLDTPLLIQSADEEYLGALPGFTALQQARKPVELIIYPNEHHVKWQPAHRLAVYNRTIDWFRFWLMDQSDPAPDKAAQYDRWRALRALRQKSPSPTPAP
B2: His-tagged S527A mutant of AtxE2 (protein)
chain: B1 chain with S497A

Assays:
astexin-1 = molecular target: T1, astexin-1
[1] = molecular target: T2, astexin-2 ΔC3 (lassoed, threaded)
[2] = molecular target: T3, astexin-2 ΔC4 (lassoed, threaded)
[3] = molecular target: T4, astexin-3 (lassoed, full-length)
astexin-3 ΔC1 = molecular target: T5, astexin-3 ΔC1
astexin-3 ΔC2 = molecular target: T6, astexin-3 ΔC2
unthreaded astexin-2 ΔC3 = molecular target: T7, unthreaded astexin-2 ΔC3
unthreaded astexin-2 ΔC4 = molecular target: T8, unthreaded astexin-2 ΔC4

| Protein | hydrolysis (HPLC retention time, MS) after 6 hours with 860 nM AtxE2 (astexin-1) | hydrolysis (HPLC retention time) of purified peptide with 424 nM AtxE2 [1] | hydrolysis (HPLC retention time, MALDI MS) after 6 hours with 860 nM AtxE2 [1] | hydrolysis (HPLC retention time, MALDI MS) after 6 hours with 860 nM AtxE2 [2] | Km [3] | hydrolysis (HPLC retention time, MALDI MS) after 6 hours with 860 nM AtxE2 [3] | kcat [3] | kcat/Km [3] | hydrolysis (HPLC retention time, MALDI MS) after 6 hours with 860 nM AtxE2 (astexin-3 ΔC1) | hydrolysis (HPLC retention time, MALDI MS) after 6 hours with 860 nM AtxE2 (astexin-3 ΔC2) | hydrolysis (HPLC retention time) in lysate extract treated with AtxE2 (unthreaded astexin-2 ΔC3) | hydrolysis (HPLC retention time) of purified, heat-treated peptide with 424 nM AtxE2 (unthreaded astexin-2 ΔC3) | hydrolysis (HPLC retention time) in lysate extract treated with AtxE2 (unthreaded astexin-2 ΔC4) | activity toward astexin-3 in vitro [3] |
| --- | --- | --- | --- | --- | --- | --- | --- | --- | --- | --- | --- | --- | --- | --- |
| B1 | the retention time of astexin-1 did not shift after incubation with AtxE2 and no molecular weight difference was observed in the MS | only the threaded species exhibited a change in retention time consistent with hydrolysis of the isopeptide bond | an increase of 18 mass units for all astexin-2 and astexin-3 species, corresponding to the addition of a water molecule via the cleavage of a single amide bond | an increase of 18 mass units for all astexin-2 and astexin-3 species, corresponding to the addition of a water molecule via the cleavage of a single amide bond | Km equal to 131 µM | an increase of 18 mass units for all astexin-2 and astexin-3 species, corresponding to the addition of a water molecule via the cleavage of a single amide bond | kcat equal to 0.38 s^-1 | kcat/Km value for AtxE2 to be 2.9×10^3 M^-1 s^-1 | an increase of 18 mass units for all astexin-2 and astexin-3 species, corresponding to the addition of a water molecule via the cleavage of a single amide bond | an increase of 18 mass units for all astexin-2 and astexin-3 species, corresponding to the addition of a water molecule via the cleavage of a single amide bond | the retention times for these unthreaded species did not change after incubation with AtxE2 | only the threaded species exhibited a change in retention time consistent with hydrolysis of the isopeptide bond | the retention times for these unthreaded species did not change after incubation with AtxE2 |  |
| B2 |  |  |  |  |  |  |  |  |  |  |  |  |  | AtxE2 S527A had no activity toward astexin-3 |
